The nanobody polyreactivity screen of Harvey et al. (2022)

Assay: yeast display, Sf9 membrane polyspecificity reagent, FACS + sequencing; frameworks hold sequencing errors
How it was run: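 Galactose-induced (36–48 hours) yeast carrying a synthetic nanobody display library were exposed to 10% biotinylated, detergent-solubilized Sf9 membrane reagent at 4 °C for 1 hour. FACS followed streptavidin microbead enrichment, using low and high (top ~1%) gates for expression (anti-HA) and reagent binding (streptavidin). Colony PCR, MiSeq 2 × 250 sequencing and CDR-length filtering followed. Labels for polyreactivity reflect the gate of origin.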

| Sequence | polyreactivity (PSR sort gate) |
| --- | --- |
| QFQLVDSGGGLVQAGGSLRLRSAASGRTFYPYVMAWYRQAPGKEREIVAAISYTGCSTYYADSVKGRFTISRDNAKNTVYLQMNSLKPEDTAVYYCNRAKYYSGGYRYHVDYWGQGTQVTVSS | high polyreactivity |
| QVQLVESGGGLVQAGGSLRLSCAASGIIFSFYAMGWYRQAPGKERELVADITLSGGRTYYADSVKGRFTISRDNAKNTVYLQMNSLKPEDTAVYYCNADTYERGDYWGQGTQVTVSS | high polyreactivity |
| QVQLVESGGGLLQAGGSLRLSCAASGRTYYTNAMGWYRQAPGKERELVAAISRGGGRTYYADSVKGRFTISRDNAMNSVYLQMNSLKPEDTAVYYCAASPYQGQGREYYYWGQGTQVTESS | high polyreactivity |
| QVQLVESGGGLVQAGGSLRLSCAASGSIFPFYAMGWYRQAPGKERELVAAISWSVGNTYYADSVKGRFTISRDNAKNTVYLQMNRLKPEDTAVYYCAARQDPPLGYDYWGQGTQVTVSS | low polyreactivity |
| QVQLVESGGGLVQAGGSLRLSCAASGRIFQKYAMGWYRQAPGKERELVAAISSGDSTYADSVKGRFTISRDNAKNTVYLQMNSLKPEDTAVYYCNREVPESQGFITPDGYCGQGTQVTVSS | low polyreactivity |
| QVQLVESGGGLVQAGGSLRLSCAASGSTFLNNAMGWYRQAPGKERELVASIRYSSARTYYADTVKGRFTISRDNAKNTVYLQMNSLKPEDTAVYYCAADRWVGYRVYKYDYWGQGTQVTVSS | high polyreactivity |
| QVQLVESGGGLVQAGGSLRLSCAASGSIFTINAMGWYRQAPGKERELVAAISFSGGRTYYADSVKGRFTISRDNAKNTVYLQMNSLKPEDTAVYYCAAPFYYYGVRFDYWGQGTQVTVSS | high polyreactivity |
| QVQLVESGGGLVQAGGSLRLSCAASGSTFSSYAMGWYRQAPGKERELVAAISKHAGSTYYADSVKGRFTISRDNAKNTVYLQMNSLKPEDTAVYYCAKDSSVQAYYGYWYTSTDDYWGQGTQVTVSS | low polyreactivity |
| QVQLLESGGGLVQAGGSLRLSCAASGRIFPRYAMGWYRQAPGKERELVASITRRGGSTYYADSVKGRFTISRDNAKNTVYLQMNSLKPEDTAVYYCNALPRAQSYELYNYWGQGTQVTVSS | high polyreactivity |
| QVQLVESGGGLVLAGGSLRLSCAASGRTFELNALGWYRQAPGKERELVAAISWSGGSTYYADSVKGRFTISRDNAKNTVYLQMNSLKPEDTSVYYCAAQYQQGPFVKYYYWGQGPQVTVSS | high polyreactivity |
| QVQLVESGGGLVQAGGSLRLSCAASGRIFGAYAMGWYRQARGKERELVAAIDIRGGNTYYADSVKGRFTISRDNAKNTVYLQMNSLKPEDTAVYYCPADTWYDAYNYWGQGTQVTVSS | low polyreactivity |
| QVHLVESGGGLVQAGGSLRLSCAASGFIFGYNARGWYRQAPAKERELVAAINWSGGRTYYADSVKGRFTISRDIAKNTVYLQMNSLKPEVTAVSYCNADGSRRYNYWGQGSQVTVSS | low polyreactivity |
| QVQLVESGAGLVQAGGSLRLSCAASGRIFAGYAMGWYRQAPGKEMELVATISSGGSTYYADSVKGRFTISRYNAKNTVYLQMNSLKPEVTAVYYCAADNWVNDGDYCGQGTQVTVSS | low polyreactivity |
| QVKLVESGGGLVQAGGSLRLSCAASGFIFKANAMGWYRQAPGKETELVAAITWRDGNTNYADSVKGRFTISRDNAKNTVYLQMNSLKPEDTAGYYCAVRLLADDGYPAVVGDDYWGQGTQVTVSS | low polyreactivity |
| QVKLVDSGGGLVQAGGSLRISCAASGRIFGRYTMGWYRQAPGKERELVAGITYSGGSTYYADSVKGRFTISRDNAKNTVYLQMNSLKPEDTAVYYCAARLSGSGGFDYWGQGTQVTVSS | high polyreactivity |
| QVQLVESGGGLVQAGGSLRLSCAASGSIFTPYAMGWYRQAPGKERELVAVISWRVDSTYYADSVKGRFTISRDNAKNTVYLQMNSLKPEDTAVYYCAAKSYLLAPFGSGNRWSRYDYWGQGTQVTVSS | high polyreactivity |
| QVQLVESGGGLVQAGGSLRLSCAASGLTFNRYAMGCYRQAPGKEREFVAAISVRSGSTYYADSVKGRFTISRDNAKNTVYLQMNSLKPEDTAVYYCAAKIRKDYSIQGYDYWGQGTQVTVSS | high polyreactivity |
| QVQLVESGGGLVQAGGSLRLSCAASGRIFYAYAMGWYRQAPGKERELVAGISRGSSTNYADSVKGRFTISRDNAKNTVYLQMNSLKPEDTAVYYSAADVHRRGRYHSTYDYWGQGTQVTVSS | low polyreactivity |
| QVQLVESGGGLVQAGGSLRLSCAASGRKFNGYDMGWYRQAPGKERELVAPINNSGGTDNTYYADSVKGRFTISRDNAKNTVYLQMNSLKPEDTAVYYCNAGPVWDQWWLYYYWGQGTQVTVSS | high polyreactivity |
| QVQLVESGGGLVQAGGSLRLSCAASGSTFLPNAMGWYRQAPGKERELVATITFDGGSTYYADSVKGRFTISRDNAKNTVYLQMNSLKPEDTAVYYCNTVELYWRGYDYWGQGTQVTVSS | high polyreactivity |
| QVQLVESGGGLVQAGGSLRLSSAASGFTFVNYAMGWYRQAPGKERELVAAITRGGSTYYADSVKGRFTISRDNAKNTVYLNMNSLIPEDTAVYYCSARYFYLFRPTEYYYWGQGTQVTVSS | high polyreactivity |
| QVQLVESGGGLVQAGGSLRLSCAASGRTSWVNAMGWYRQAPGKERELVAAIVSGGTTKYADSVKGRFTISRDNAKNTVYLQMNSLKPEDTAVYYCAVRYSKRSVYTYGFNYWGQGTQVTVSS | high polyreactivity |

| Sequence | polyreactivity (PSR sort gate) |
| --- | --- |
| QVQLVDSGGGLVQAGGSLRLSCAASGFSLSINAMGWYRQAPGKERELVDGISWSGGSTYYADSVKGRFTISRDNAKTTFYLQMNSLKTEDTAVYYCNADLFLFVYFGQYYWRTYNYWGQGTQVTVSS | low polyreactivity |
| QVQLVESGGGLVQAGGSLRLSCAASGSILVRYAMGWYRQAPGKERELVAAITYSGGSTYYADSVKGRFTISRDNAKNTVYLQMNSLKPEDTAVYYCAADVWWSYYRYDYWGQGTQVTVSS | low polyreactivity |
| QVQLVESGGGLVQAGGSLRLSCAASGTIFGYYAMGWYRQAPGKERELVAAITSDGDTYYADSVKGRFTISRDNAKNTVYLQMNSLIPEDTAVYYCNATYGGPYYIQYDYWGQGTQVTVSS | low polyreactivity |
| QVQLVESGGGLVQAGGSLRLSCAAYGSIFKRYAMGWYRQAPGKERELVASNSSSGSSTNYADSVKGRFTISRDTAKNTVYLQMNSLKPEDTSVYYCAADTKASGTPVYYSYLYDYWGQGTHVTVSS | high polyreactivity |
| QVQLVESGGGLVQAGCSLRLSCAASGSTLDGNAMGWYRQPPGKERELVAAISVSGGTTYYADSVKGRFTISRDNAKNNVYLQMNSLKREDTAVYYCSTEWRPRYYGTEPFDSWGQGTQVTVSS | high polyreactivity |
| QVQLVESGGGLVQAGGSLRLSFAASGSIINAYAMGWYRQAPGKERELVAAINSGGTTYYADSVKGRFTISRDNAKNTVYLQLNSLKPEDTAVYYCAKTRSYGRSGVSRRDGFYYWGQGTQVTVSS | high polyreactivity |
| QVHHVESGGGLVQAGGSLRLSCAASGFTLGWYAMGWYRQAPGKERELVAAISSSGGSTYYADSVKGRFTISRDNAKNTVYFQMNSLKPEDTAVYFCAASSAYYRYGYGQFDYWGQGTQVTVSS | high polyreactivity |
| QLQHVESGGGLVQAGGSLRLTCAASGYTYHGYAMGWYRQAPGKERELVAVITQRGGSTSYADSVKGSFTISRDYAKNNVNLQMKSLKPVDTAVYYCNDSAWLVVARTRYGYWGQGTQVTVSS | low polyreactivity |
| QVQLVESGGGLVQAGGSLRLSCAASGSIFRIYAKGWYRQAPGKERELVAAISSTGSTSYADSVKGRFTISRDNAKNTVYLQMNSLKPEDTAVYYCAAGVYALRRDYWVQGTQVTVSS | low polyreactivity |
| QVQLVESGGGLVQAGGSLRLSCAASGIIFGSNTMGWYRQAPGKERELVAAITSSDGSTHYADSVKGRFTISRDNAKNTVYLQMNTLKPEDTAVYYCAARKVTYGHSYGYDYWGQGTQVTVSS | low polyreactivity |
| QVQLVESGGGLVQAGGSLRLSCAASGRILYYYVMGWYRQAPGKERELVAAITRGGSTDYADSVKGRFTISLDNAKNTVYLQMNSLKPEDTAVYYCAAVVYLHYSVDYWGQGSQVTVSS | low polyreactivity |
| QVQLVESGGGLVQAGGSLRLTCDASGYIFSKYAMGWYRQAPGKERELVAAISGSGGSTSYADSVKGRFTISRDNAKNTVYLQMYCLKPEDTAVYYCIARSRLQRGRMDYWGQGTQVTVSS | high polyreactivity |
| QVQLVESGGGLVQAGGSLRLSCAASGINFGRYAMGWYRQAPGKERELVATITVNGGRTYYADSVKGRFTISRDNAKNTVYLQMNSLKPEDTAVYYCNAEVPGHYFDGWYFYDFDYWGQGTQVTVSS | low polyreactivity |
| QVQLVESGGGLVQAGGSLRLSCAASGGTFFTNAMGWYRHAPGKERELVAVITGSGGRTYYADSVKGRFTISRDNAMNTVYLQMNSLKPEDTAVYYCAARGYSWGQGTQVTLSS | high polyreactivity |
| QVQLVESGGGLVQAGGSLRLSCAASVYTFPSYVMGWYRQAPGKERELVAAISSGSRTYYADSVKGRFTISRDNAKNTVYLQMNSLKPEDTAVYYCNARGFPGKFGYWGPGTQVTVSS | high polyreactivity |
| QVQLVESGGGLVQAGGSLRLSCAASGSTFSKYAMGWYRQAPWKESELVASITWSGGSTYYADSVKGRFTISRDNAKNTVYLQMNSLIPEDTAVYYCNVRTIQYNVGRWWEYDYWGQVTQVTVSS | low polyreactivity |
| QVQLVESGGGLVQAGGSLRLSCAASGRIFSGYAMGWYRQAPGKERELVAAITSGGSTNYADSVKGRFTISRDNAKNTVYLQMNSLKPVDTAVYYCAKYYFQYKHDYWGQGTQVTVTS | low polyreactivity |
| QVQLVESGGGLVQAGGRLRLSCAASGSIILFKDMGWYGQAPGKERELVADITWSGGSTYYADSVKGRFTISCDNAKNTVYLQMHSLKPEDTAVDYCADDPDYYFTRGNYQWGYYWGQGTQVTVSS | low polyreactivity |
| QVQLVESGGGLDQAGGSLRLSCAASGFIFPGNAMGWYRQAPGKERELVAAISWRVGRTYYADSVKGRFTISRDNAKNTVYLQMNSLKPEDTAVYYCAVARSSPEYYYWGQGTQVTVSS | high polyreactivity |
| QVQLVESGGGLVQAGGSLRLSCAASGRIFRYNAMGWYRQAPGKERELVAAISFSTTSPYYADSVKGRFTISRDNAKNTVYLQMNSLKPEDTAVYNCNTPGLPIDSEYDYWGQGTQVTVSS | low polyreactivity |
| QVQLVESGGGLVQAGGSRRLSCAPSGSIIGEYAMGWYRQAAGKERELVAAINVNGGRTYYADSVKGRFTISRDNAKYTVYLQMNRLKPEETAVYYCNAGYYLTLDYWGQGTQVTVSS | high polyreactivity |
